Target: HIV-1 YU2 gp120 S375A mutant (HIV-1 YU2)
Assay: SPR

KR21 biotinylated peptide triazole
IC50: 1.28 µM
